In patent publication US20260209362A1 (VIB VZW, published 2026):

T1: human IL-12Rβ2 expressed on cells (human, UniProt Q99665 24-862)
T1 construct: the cell lines are described by plasmid or cDNA number only; also called hIL-12RB2; HEK293T transiently transfected with human IL-12Rβ2
T1 sequence: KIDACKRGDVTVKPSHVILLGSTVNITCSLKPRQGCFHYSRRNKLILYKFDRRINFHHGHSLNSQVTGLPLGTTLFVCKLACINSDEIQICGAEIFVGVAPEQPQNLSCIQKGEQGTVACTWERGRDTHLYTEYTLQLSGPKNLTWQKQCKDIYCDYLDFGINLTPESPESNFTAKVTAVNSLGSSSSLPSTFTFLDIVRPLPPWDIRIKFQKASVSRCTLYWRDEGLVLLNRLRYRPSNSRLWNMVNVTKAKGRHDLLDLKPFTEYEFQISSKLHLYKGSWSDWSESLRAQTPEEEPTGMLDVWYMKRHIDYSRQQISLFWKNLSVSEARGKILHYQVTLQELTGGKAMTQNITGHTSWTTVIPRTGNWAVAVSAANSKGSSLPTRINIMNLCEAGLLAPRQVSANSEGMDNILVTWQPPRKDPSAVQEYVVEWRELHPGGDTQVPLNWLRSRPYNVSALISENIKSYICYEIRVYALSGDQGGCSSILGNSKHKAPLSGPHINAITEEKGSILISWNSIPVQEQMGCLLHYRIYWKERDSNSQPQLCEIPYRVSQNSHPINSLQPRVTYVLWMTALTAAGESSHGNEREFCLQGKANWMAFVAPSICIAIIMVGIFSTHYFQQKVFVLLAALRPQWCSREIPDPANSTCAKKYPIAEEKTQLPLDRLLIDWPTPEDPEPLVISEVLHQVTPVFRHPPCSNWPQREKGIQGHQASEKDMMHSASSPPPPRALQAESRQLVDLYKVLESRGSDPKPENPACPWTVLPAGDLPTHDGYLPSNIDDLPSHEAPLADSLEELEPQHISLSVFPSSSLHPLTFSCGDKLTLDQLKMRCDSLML

T2: biotinylated human recombinant IL-12Rβ2 (produced in-house) (human, UniProt Q99665 24-622, random biotinylated)
T2 construct: Soluble recombinant protein used for panning, ELISA and BLI; also called hIL-12RB2; hIL12RB2
T2 sequence: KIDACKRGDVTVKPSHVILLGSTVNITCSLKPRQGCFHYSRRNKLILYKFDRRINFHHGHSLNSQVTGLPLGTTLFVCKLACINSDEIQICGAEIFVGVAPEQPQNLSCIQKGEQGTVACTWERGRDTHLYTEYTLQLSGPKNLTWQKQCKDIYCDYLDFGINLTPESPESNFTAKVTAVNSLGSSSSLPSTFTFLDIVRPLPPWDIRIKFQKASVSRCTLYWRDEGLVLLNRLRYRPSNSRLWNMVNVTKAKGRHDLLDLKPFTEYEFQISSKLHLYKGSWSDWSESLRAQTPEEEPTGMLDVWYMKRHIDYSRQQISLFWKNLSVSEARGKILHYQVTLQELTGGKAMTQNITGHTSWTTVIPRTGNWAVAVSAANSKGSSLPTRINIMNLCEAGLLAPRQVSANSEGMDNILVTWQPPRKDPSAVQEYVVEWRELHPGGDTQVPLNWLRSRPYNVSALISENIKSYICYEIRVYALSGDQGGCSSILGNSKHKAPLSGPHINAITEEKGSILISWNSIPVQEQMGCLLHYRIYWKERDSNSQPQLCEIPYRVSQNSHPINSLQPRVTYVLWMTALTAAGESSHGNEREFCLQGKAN

T3: biotinylated mouse recombinant IL-12Rβ2 (produced in-house) (mouse, UniProt P97378 24-637, random biotinylated)
T3 construct: Soluble recombinant protein used for panning, ELISA and BLI; also called mIL-12RB2; mIL12RB2
T3 sequence: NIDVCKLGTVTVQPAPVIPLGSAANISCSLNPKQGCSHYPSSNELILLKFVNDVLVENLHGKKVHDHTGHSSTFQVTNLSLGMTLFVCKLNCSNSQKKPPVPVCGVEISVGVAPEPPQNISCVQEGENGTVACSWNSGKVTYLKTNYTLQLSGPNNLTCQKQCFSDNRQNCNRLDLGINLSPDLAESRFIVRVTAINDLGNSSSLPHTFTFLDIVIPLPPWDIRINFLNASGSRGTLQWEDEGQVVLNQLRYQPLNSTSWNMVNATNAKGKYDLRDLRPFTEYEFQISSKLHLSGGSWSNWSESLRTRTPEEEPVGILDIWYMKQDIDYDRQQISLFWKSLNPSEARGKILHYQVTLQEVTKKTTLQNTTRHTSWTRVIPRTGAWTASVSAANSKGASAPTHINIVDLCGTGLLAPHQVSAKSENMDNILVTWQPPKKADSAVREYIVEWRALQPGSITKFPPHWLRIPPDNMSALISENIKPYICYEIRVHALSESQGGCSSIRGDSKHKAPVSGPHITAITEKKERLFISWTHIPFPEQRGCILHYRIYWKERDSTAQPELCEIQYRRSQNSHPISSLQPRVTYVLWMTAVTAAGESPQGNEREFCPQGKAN

B1: anti-IL-12Rβ2 VHH clone 3CRHS128 (clone ID 20432) (VHH)
VHH: QVQLQESGGGLVQPGGSLRLSCAASGFTFSTSGMHWFRQAPGKGLEWVSSIGATVDNSYYASSVKGRFTISRDNAKNTLYLLMNSLKSEDTAVYYCSKDPTGSSRGQGTQVTVSS
notes: Tested as periplasmic extract; not shown: C-terminal HA tag
B2: anti-IL-12Rβ2 VHH clone 3CRHS163 (clone ID 20438) (VHH)
VHH: QVQLQESGGGLVQPGGSLRLSCTASGFAFSTYWMYWIRQSPEKGFEWVSVVNTGGDITYYADSVKGRFTISRDNAKNTLYLQMNSLKPEDTALYYCARDRTTMSYTRTYYRGGQGTQVTVSS
notes: Tested as periplasmic extract; also called 3CANS142; not shown: C-terminal HA tag
B3: anti-IL-12Rβ2 VHH clone 3CAHS142 (clone ID 20401) (VHH)
VHH: QVQLQESGGGLVQAGESLTLSCIASGVIKDYAMGWFRQAPGKEREFVAAISWSGVSIYYADSVKGRFTISRDNAKNTVYLQMNSLEPEDTAVYYCAGTEGAYTVAGGSTFGYDMDYWGKGTQVTVSS
notes: as for B1
B4: anti-IL-12Rβ2 VHH clone 3CAHS41 (clone ID 20394) (VHH)
VHH: QVQLQESGGGLVQAGDSLRLSCAASGRTFDTYIVGWFRQAPGKEREFVSALSWSDDTTIRDDSLRGRFTISRDNAKNTVYLLMNSLKPEDTAVYYCAAKAKPPAATWSSYRNREWYDYWGQGTQVTVSS
notes: as for B1
B5: anti-IL-12Rβ2 VHH clone 3CRHS9 (clone ID 20415) (VHH)
VHH: QVQLQESGGGLVQPGGSLRLSCTASGSIVSIYNMDWYRQAPGNEREWVASITSSGDPYYDGSAKGRFTISRDNAKMTVYLQMNSLKPEDTAVYYCKVPTEKGNYWGQGTQVTVSS
notes: Tested as periplasmic extract; also called 3CRMS9; not shown: C-terminal HA tag
B6: anti-IL-12Rβ2 VHH clone 2CRH82 (clone ID 20372) (VHH)
VHH: QVQLQESGGGLVQAGGSLRLSCAASARTESMYAMAWFRQAPGKEREIVAGIIQSGGTTYISDYMKGRFSIDRGNAENTVYLQMDSLKPEDTAVYSCAAKVSSGTPSDIQISQSRWYDHWGQGTQVTVSS
notes: as for B1
B7: anti-IL-12Rβ2 VHH clone 3CRH25 (clone ID 20378) (VHH)
VHH: QVQLQESGGGLVQAGDSLRLSCTASGHTFSRYTTIGWFRQAPGKDREFVAAIRWSGDITDYADAVKGRFTISRDNVKNTVYLQMNSLNPEDTAVYYCARGYSEYGVLSRNRGLYAYWGQGTQVTVSS
notes: as for B1
B8: anti-IL-12Rβ2 VHH clone 3CAHS124 (clone ID 20400) (VHH)
VHH: QVQLQESGGGLVQPGGSLRLSCAASGRTINAYIMGWFRQAPGKEREFVAAVSGSGGSTYYADSVKGRFTISRDNAKNTVNLQMDNLRSEDTDVYYCAATYESVYLQNPGQYDYWGQGTQVTVSS
notes: as for B1
B9: anti-IL-12Rβ2 VHH clone 3CRHS106 (clone ID 20429) (VHH)
VHH: QVQLQESGGGLVQPGGSLRLSCKASGFTFSTYAMSWVRQAPGKGLEWVSAVNSGGLSTDYADSVEGRFTISRDDAKNMLFLQMNSLKPEDTARYYCAKYEDCSDYMCHRDRAGYWGQGTQVTVSS
notes: as for B1
B10: anti-IL-12Rβ2 VHH clone 3CRH5 (clone ID 20373) (VHH)
VHH: QVQLQESGGGLVQAGGSLVLSCAASGSAALIFLMSWYRQAPGKQRELVAEVSRGGSTTYADSVEGRFTISRDNAKNIVDLQMNSLKPEDTAVYYCKADQNYGDSLRSSWGQGTQVTVSS
notes: Tested as periplasmic extract; also called 3CRHS; not shown: C-terminal HA tag
B11: anti-IL-12Rβ2 VHH clone 3CAHS171 (clone ID 20407) (VHH)
VHH: QVQLQESGGGLVQPGGSLRLTCVASGFPFSTHAMSWVRQPPGKGREWISAINSGGDSTDYADSVMGRFTISRDNAKNTVYLQMNSLKSEDTAAYYCAKYEDCSDYDCSSRASWGQGTQVTVSS
notes: as for B1
B12: anti-IL-12Rβ2 VHH clone 3CAHS102 (clone ID 20399) (VHH)
VHH: QVQLQESGGGLVQPGGSLRLSCAASGSILRINLMGWYRQVPGKQRELVAEMSTGGSTTYVDSVEGRFTISRDNAKNTVYLQMNSLKPEDTAVYYCNAKAWQLGRLENDDWGQGTQVTVSS
notes: as for B1

The binders below were run against T1, human IL-12Rβ2 expressed on cells (assay: flow cytometry, periplasmic extract VHH-HA on HEK293T cells transiently expressing human IL-12Rβ2).

| % cells bound [%] | dMFI | Binder |
| --- | --- | --- |
| 50.5 | 1380 | B1 |
| 43.7 | 1050 | B2 |
| 40.9 | 812 | B3 |
| 43.3 | 971 | B4 |
| 42.1 | 941 | B5 |
| 40.1 | 744 | B6 |
| 34.8 | 520 | B7 |
| 46.3 | 1100 | B8 |
| 43.3 | 1010 | B9 |
| 39.5 | 735 | B10 |
| 47.5 | 1180 | B11 |
| 44.7 | 994 | B12 |

The binders below were run against T2, biotinylated human recombinant IL-12Rβ2 … (assay: ELISA, periplasmic extract on biotinylated human IL-12Rβ2; signal over streptavidin control well).

| hIL12RB2/control (ELISA) [ratio] | Binder |
| --- | --- |
| 3.65 | B1 |
| 3.58 | B2 |
| 4.98 | B3 |
| 8.77 | B4 |
| 5.08 | B5 |
| 16.1 | B6 |
| 5.16 | B7 |
| 5.67 | B8 |
| 10.2 | B9 |
| 8.64 | B10 |
| 3.27 | B11 |
| 3.54 | B12 |

What follows are binders tested against T3, biotinylated mouse recombinant IL-12Rβ2 … (assay: ELISA, periplasmic extract on biotinylated mouse IL-12Rβ2).

| binding result | Binder |
| --- | --- |
| no binding | B1 |
| no binding | B2 |
| no binding | B3 |
| no binding | B4 |
| no binding | B5 |
| no binding | B6 |
| no binding | B7 |
| no binding | B8 |
| no binding | B9 |
| no binding | B10 |
| no binding | B11 |
| no binding | B12 |

These binders were tested against T2, biotinylated human recombinant IL-12Rβ2 … (assay: BLI (Octet Red), periplasmic extract on biotinylated human IL-12Rβ2 on streptavidin tips).

| Response | Binder |
| --- | --- |
| 0.294 | B1 |
| 0.339 | B2 |
| 0.352 | B3 |
| 0.509 | B4 |
| 0.222 | B5 |
| 0.426 | B6 |
| 0.523 | B7 |
| 0.293 | B8 |
| 0.297 | B9 |
| 0.491 | B10 |
| 0.195 | B11 |
| 0.323 | B12 |

What follows are binders tested against T3, biotinylated mouse recombinant IL-12Rβ2 … (assay: ELISA, periplasmic extract on biotinylated mouse IL-12Rβ2; signal over streptavidin control well).

| mIL12RB2/control (ELISA) [ratio] | Binder |
| --- | --- |
| 0.98 | B1 |
| 0.93 | B2 |
| 1.07 | B3 |
| 1.35 | B4 |
| 1.09 | B5 |
| 1.77 | B6 |
| 1.04 | B7 |
| 1 | B8 |
| 1.03 | B9 |
| 0.81 | B10 |
| 0.96 | B11 |
| 1.02 | B12 |

These binders were tested against T2, biotinylated human recombinant IL-12Rβ2 … (assay: BLI (Octet Red), periplasmic extract on biotinylated human IL-12Rβ2 on streptavidin tips, 1:1 model).

| koff [s⁻¹] | Binder |
| --- | --- |
| 0.00274 | B1 |
| 0.00302 | B2 |
| 0.00324 | B3 |
| 0.00441 | B4 |
| 0.0034 | B5 |
| 0.00274 | B6 |
| 0.00205 | B7 |
| 0.00324 | B8 |
| 0.00355 | B9 |
| 0.00337 | B10 |
| 0.00431 | B11 |
| 0.00267 | B12 |
